Experimental data published in paper PMC9156758.

Tests used:
[1] = biological target: A2ML1-CC (TEV-P-cleaved A2ML1t with covalently conjugated TEV-P) (human | tobacco etch virus) (UniProt A8K2U0); experiment: cryo-EM structure; TEV-P-cleaved A2ML1t samples on grids; monomers and dimers separated by 2D classification, multi-class ab initio reconstruction and heterogeneous refinement
[2] = biological target: TEV-P-cleaved A2ML1t prepared in the presence of BAPN, without conjugated TEV-P (human) (UniProt A8K2U0); experiment: as above

TEV-P-cleaved A2ML1t prepared in the presence of BAPN, without conjugated TEV-P, sequence (A8K2U0 19-1454): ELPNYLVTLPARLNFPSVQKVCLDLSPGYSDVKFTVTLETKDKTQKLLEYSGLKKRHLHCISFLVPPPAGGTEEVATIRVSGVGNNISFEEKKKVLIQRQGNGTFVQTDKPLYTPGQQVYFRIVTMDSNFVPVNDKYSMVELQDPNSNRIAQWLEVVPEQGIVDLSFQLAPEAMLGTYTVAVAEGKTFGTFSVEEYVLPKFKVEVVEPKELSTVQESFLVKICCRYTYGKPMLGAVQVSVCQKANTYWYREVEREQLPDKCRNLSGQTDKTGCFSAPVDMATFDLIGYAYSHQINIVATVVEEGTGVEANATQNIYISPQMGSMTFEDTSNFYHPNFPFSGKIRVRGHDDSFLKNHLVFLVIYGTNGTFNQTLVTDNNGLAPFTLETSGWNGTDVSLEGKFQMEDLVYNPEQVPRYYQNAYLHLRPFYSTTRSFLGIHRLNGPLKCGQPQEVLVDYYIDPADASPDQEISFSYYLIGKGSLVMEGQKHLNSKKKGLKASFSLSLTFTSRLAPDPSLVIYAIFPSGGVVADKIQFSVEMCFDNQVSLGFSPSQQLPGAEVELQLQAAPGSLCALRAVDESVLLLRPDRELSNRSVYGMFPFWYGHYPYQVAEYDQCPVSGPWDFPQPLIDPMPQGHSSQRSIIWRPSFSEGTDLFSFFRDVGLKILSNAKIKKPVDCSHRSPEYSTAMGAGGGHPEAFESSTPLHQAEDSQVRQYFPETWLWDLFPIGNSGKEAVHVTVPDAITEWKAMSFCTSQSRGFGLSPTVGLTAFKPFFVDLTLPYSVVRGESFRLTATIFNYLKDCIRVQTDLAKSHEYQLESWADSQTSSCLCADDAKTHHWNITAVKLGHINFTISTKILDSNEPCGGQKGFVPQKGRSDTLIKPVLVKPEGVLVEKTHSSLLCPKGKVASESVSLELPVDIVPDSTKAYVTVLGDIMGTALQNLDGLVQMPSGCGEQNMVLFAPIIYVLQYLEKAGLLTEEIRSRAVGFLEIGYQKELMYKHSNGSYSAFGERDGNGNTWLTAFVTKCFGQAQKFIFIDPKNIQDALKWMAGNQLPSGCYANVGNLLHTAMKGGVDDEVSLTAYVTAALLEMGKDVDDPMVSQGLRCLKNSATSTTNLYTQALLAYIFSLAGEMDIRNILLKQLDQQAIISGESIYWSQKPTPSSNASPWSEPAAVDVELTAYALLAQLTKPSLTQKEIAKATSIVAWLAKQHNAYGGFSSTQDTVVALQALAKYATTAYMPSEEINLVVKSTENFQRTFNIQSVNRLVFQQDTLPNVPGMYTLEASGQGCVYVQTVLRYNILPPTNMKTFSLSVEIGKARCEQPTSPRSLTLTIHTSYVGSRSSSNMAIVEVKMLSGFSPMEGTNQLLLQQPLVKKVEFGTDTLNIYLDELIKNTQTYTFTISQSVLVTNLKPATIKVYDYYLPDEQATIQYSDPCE
TEV-P-cleaved A2ML1t prepared in the presence of BAPN, without conjugated TEV-P, sequence (A8K2U0 19-1454): as above
A2ML1-CC (TEV-P-cleaved A2ML1t with covalently conjugated TEV-P), sequence (A8K2U0 whole entry, looked up, one chain of several): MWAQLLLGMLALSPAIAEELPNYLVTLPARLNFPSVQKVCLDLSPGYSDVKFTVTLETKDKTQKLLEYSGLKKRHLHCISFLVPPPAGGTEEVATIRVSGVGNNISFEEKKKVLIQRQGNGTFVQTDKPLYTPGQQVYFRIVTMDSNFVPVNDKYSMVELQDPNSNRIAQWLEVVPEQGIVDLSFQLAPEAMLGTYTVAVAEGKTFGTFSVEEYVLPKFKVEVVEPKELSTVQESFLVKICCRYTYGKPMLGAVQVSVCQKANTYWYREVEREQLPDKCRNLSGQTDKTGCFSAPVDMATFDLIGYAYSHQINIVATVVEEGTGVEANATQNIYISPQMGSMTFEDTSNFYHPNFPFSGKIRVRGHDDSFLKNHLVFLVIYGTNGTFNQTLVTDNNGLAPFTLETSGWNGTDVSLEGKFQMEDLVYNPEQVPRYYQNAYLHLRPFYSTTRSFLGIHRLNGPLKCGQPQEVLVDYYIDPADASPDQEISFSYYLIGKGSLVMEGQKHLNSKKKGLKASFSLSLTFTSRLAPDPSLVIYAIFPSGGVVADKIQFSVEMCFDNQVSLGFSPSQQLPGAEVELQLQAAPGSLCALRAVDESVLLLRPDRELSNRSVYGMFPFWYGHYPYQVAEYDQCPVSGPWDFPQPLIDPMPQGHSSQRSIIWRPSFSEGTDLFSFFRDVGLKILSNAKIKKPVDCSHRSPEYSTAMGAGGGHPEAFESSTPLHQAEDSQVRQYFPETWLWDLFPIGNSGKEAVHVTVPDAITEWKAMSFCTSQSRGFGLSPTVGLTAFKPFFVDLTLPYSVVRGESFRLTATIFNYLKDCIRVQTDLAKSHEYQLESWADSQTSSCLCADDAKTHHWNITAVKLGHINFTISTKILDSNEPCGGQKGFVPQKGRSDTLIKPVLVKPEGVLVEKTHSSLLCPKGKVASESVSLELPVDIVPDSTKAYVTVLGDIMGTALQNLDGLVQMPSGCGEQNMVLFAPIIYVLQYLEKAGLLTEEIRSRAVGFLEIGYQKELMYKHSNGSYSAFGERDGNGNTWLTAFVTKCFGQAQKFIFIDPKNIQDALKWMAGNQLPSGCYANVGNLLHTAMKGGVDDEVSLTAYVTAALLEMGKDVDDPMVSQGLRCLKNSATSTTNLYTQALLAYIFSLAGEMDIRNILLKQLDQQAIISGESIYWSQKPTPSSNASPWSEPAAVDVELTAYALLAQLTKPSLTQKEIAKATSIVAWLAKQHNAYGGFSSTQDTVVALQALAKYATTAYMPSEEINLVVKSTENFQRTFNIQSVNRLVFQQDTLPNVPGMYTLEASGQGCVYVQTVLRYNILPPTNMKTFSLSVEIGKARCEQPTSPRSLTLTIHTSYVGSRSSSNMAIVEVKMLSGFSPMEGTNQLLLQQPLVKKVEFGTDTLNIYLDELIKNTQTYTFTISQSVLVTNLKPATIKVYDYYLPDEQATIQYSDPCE

fraction of picked particles that were dimers (fraction of particles) [2] | stoichiometry N [2] | Substance | fraction of picked particles that were dimers (fraction of particles) [1]
– | – | A2ML1-CC (TEV-P-cleaved A2ML1t with covalently conjugated TEV-P) (from UniProt A8K2U0 19-1454; A8K2U0 19-1454) (complex) | 0.167
0.167 | 2 | TEV-P-cleaved A2ML1t prepared in the presence of BAPN, without conjugated TEV-P (from UniProt A8K2U0 19-1454; A8K2U0 19-1454) | –
